B1: VPEYTGPS (other)
major coat protein pVIII carrying the foreign peptide: VPEYTGPS
notes: landscape phage immobilized in ELISA wells; belongs to group m4
B2: DTFAKSMQ (other)
major coat protein pVIII carrying the foreign peptide: DTFAKSMQ
notes: landscape phage immobilized in ELISA wells
B3: VTFAAANT (peptide)
major coat protein pVIII carrying the foreign peptide: VTFAAANT
B4: VPEYKGAS (other)
major coat protein pVIII carrying the foreign peptide: VPEYKGAS
notes: as for B1
B5: EKTLAYNQ (other)
major coat protein pVIII carrying the foreign peptide: EKTLAYNQ
notes: as for B2
B6: EKTLAYSQ (other)
major coat protein pVIII carrying the foreign peptide: EKTLAYSQ
notes: as for B2

Key:
[1] = target: T1, neutravidin (chicken (stated for avidin), UniProt P02701 25-152); assay: direct ELISA: phage immobilized in wells, alkaline phosphatase-labeled neutravidin in solution at varied concentration [top panel]
T1 construct: Labeled with alkaline phosphatase in the ELISA; also called alkaline phosphatase-labeled neutravidin; avidin (from chicken egg white)
T1 sequence (P02701 25-152 limits assumed): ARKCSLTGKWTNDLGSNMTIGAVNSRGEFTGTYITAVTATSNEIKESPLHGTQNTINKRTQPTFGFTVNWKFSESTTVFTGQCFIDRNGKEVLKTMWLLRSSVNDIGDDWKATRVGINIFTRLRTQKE
Source text: (§1) Each binding curve is labeled with the altered amino acid sequence of the foreign peptide carried by the phage being tested (V_o=vector control). ELISA signal (mOD/min) is shown as a function of ligand concentration (micrograms/ml for top two panels; nanomolar for bottom panel).
(§2) *Escherichia coli*). Each protein was absorbed to the surface of a 35-mm polystyrene Petri dish and exposed to the phage library. Unbound phage were washed away, and bound phage was eluted with acid buffer and amplified by infecting fresh bacterial host cells. […] The selected phage were further characterized by enzyme linked immuno sorbent assay (ELISA) in which the phage were immobilized on the plastic surface of ELISA wells and reacted with the ligands in solution phase. Neutravidin and streptavidin were labeled with alkaline phosphatase, while β-galactosidase was unlabeled. […] Inhibition ELISAs verified that non-immobilized peptide-bearing phage compete with immobilized phage for binding to their respective ligands.

[2] = target: T2, β-galactosidase from Escherichia coli (Escherichia coli, UniProt P00722 2-1024 = β-galactosidase); assay: direct ELISA: phage immobilized in wells, unlabeled β-galactosidase in solution at varied concentration [bottom panel]
T2 construct: Unlabeled in the ELISA; in solution in all assays; also called b-galactosidase
T2 sequence (P00722 2-1024 limits assumed): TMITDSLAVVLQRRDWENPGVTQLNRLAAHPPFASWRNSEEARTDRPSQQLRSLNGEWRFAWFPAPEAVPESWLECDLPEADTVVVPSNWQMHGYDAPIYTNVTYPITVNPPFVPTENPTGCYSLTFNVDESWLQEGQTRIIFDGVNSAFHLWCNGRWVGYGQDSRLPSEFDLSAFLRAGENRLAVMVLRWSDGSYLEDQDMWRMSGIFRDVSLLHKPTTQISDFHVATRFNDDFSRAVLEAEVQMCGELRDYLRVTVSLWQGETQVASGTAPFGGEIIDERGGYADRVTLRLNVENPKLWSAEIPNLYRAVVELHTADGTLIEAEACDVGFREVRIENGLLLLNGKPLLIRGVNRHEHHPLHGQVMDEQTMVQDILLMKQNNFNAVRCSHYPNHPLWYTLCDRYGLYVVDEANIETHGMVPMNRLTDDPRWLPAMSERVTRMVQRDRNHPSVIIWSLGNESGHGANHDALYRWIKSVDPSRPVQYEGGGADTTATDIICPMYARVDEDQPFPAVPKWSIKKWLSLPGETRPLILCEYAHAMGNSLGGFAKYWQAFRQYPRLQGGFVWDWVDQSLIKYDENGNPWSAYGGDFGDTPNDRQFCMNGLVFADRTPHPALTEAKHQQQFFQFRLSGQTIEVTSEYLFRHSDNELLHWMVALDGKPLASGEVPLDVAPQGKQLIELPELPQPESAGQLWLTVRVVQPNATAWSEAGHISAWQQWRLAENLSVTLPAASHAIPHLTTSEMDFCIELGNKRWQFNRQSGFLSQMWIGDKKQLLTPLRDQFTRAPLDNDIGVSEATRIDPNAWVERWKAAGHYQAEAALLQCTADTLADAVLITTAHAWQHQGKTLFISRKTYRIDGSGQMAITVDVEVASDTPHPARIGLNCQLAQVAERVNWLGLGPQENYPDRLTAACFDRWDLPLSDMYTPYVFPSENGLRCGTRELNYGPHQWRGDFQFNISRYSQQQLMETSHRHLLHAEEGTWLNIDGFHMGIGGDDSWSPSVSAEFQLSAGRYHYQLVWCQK
Source text: as §1, §2

[3] = target: β-galactosidase from Escherichia coli (Escherichia coli) [β-galactosidase: P00722]; assay: as above
Sequence of β-galactosidase from Escherichia coli (Escherichia coli) [β-galactosidase: P00722] (P00722 2-1024 limits assumed): as above

Binder	EC50 (read off the curve) [1]	EC50 (read off the curve) [2]	further results
B1	~3 micrograms/ml	–	–
B2	–	~60 nM	–
B3	–	–	EC50 (read off the curve) [3]: 100 nM
B4	~3 micrograms/ml	–	–
B5	–	~40 nM	–
B6	–	~70 nM	–

From US7267993 (AUBURN UNIVERSITY, dated 2007)
